{"source": "patent US20020183271A1", "about": "“Methods of treatment involving human MDA-7” (priority 2000, published 2002)", "key": {"[1]": {"tested_on": "secretion of soluble MDA-7 protein", "test": "Inhibition of glycosylation and secretion of MDA-7 protein", "format": "cell-based", "description": "Two antibiotics, Tunicamycin and Brefeldin A, have been used to provide a more detailed characterization of the secretion of soluble MDA-7. N-linked glycosylation plays an important role in a protein's ultimate processing, whether it is sorted to a lysosomal pathway, or translocated to the cell surface or secreted. Using Tunicamycin, the N-linked glycosylation process in the […] can be inhibited, thus inhibiting protein secretion or other sugar-dependent sorting processes."}, "[2]": {"tested_on": "Human umbilical vein endothelial cells (HUVEC)", "test": "Tube formation assay (endothelial differentiation), vectors and Suramin", "format": "cell-based", "settings": "vectors 10,000 vp/cell; Suramin 50 μM; Matrigel", "method": "Human umbilical vein endothelial cells (HUVECs; Clonetics) were seeded on 1% gelatin-coated plates and incubated at 37° C. for 24 hours. […] Cells exposed to medium alone served as negative controls while cells exposed to Suramin (50 μM) served as positive controls. After a 48-hour incubation period (37° C. in serum-containing medium), infected cells were harvested, counted, and added to Matrigel-coated 24-well plates in triplicate (1.2×10^5 cells per well). Twenty-four hours later, cells were fixed with 10% buffered formalin and examined for differentiation (tube formation) by using an Olympus IX-70 inverted bright-field microscope at 4× and 10× magnification. cl Example 1\nTube Formation Assay. Human umbilical vein endothelial cells (HUVECs; Clonetics) were seeded on 1% gelatin-coated plates and incubated at 37° C. for 24 hours. After incubation, cells were infected for 1 hour with Ad-luc or Ad-mda 7 at 10,000 vp/cell in serum-free medium. Cells exposed to medium alone served as negative controls while cells exposed to Suramin (50 μM) served as positive controls. After a 48-hour incubation period (37° C. in serum-containing medium), infected cells were harvested, counted, and added to Matrigel-coated 24-well plates in triplicate (1.2×10^5 cells per well). […]"}, "[3]": {"tested_on": "MCF-7", "test": "Ad-mda7 growth inhibition, 3H-thymidine incorporation assay", "format": "cell-based, human", "settings": "MCF-7 cells; four days after treatment; tamoxifen 1 ng/ml", "method": "(§1) Cells were either plated at 500-2000 cells/well in 96-well format for Tritiated thymidine incoporation-Cell Proliferation Assay or plated at 10^5-10^6 cells/well in a 6 well plate for protein expression or Apoptosis assays or plated at 10^4 cells/well for Alamar-blue assay. […]\n(§2) Growth inhibition of cells after treatment is measured by analysis of DNA-synthesis. Briefly, for the ^3H-thymidine incorporation assay cells will be plated at 200-5000 cell per well in a 96-well format and grown in DMEM/10% FBS in a 5% CO2 incubator at 37° C. overnight. The next day the media is aspirated and replace with […] DMEM/10% FBS containing the appropriate adenovirus at the appropriate MOI. Cells will be incubated with infecting media for 1 to 4 hrs and then diluted to […] total volume and grown overnight. Media is replaced with DMEM/10% FBS/mCi ^3H-thymidine and grown for 16 to 18 hrs. Stock solution of 100 uCi/mL of H3-thymidine (Amersham) is prepared by dilution into high glucose DMEM (GIBCO). ^3H-Thymidine was added to each well at a final concentration of 1 μCi/mL. The reaction is stopped 15 hours later by removal of the supernatant from recipient cells. […] The filter were dried and analyzed in Matrix 9600 (Packard) and cell proliferation using Viral Particles/cell against Tritiated Thymidine uptake counts were plotted."}, "[4]": {"tested_on": "T47D", "test": "Ad-mda7 growth inhibition, 3H-thymidine incorporation assay", "format": "cell-based, human", "settings": "T47D cells; four days after treatment", "method": "as §1, §2"}, "[5]": {"tested_on": "PBMC", "test": "Secondary cytokine secretion from PBMC (ELISA)", "format": "cell-based, human", "method": "FIG. 24. Effect of MDA-7 and IL-10 on inflammatory cytokine secretion from PBMC. Two ml/well (2×10^6 cells/ml) PBMC were plated in a 24 well plate and cultured untreated or with indicated amounts of MDA-7 (B 2 ng/ml; D,F 20 ng/ml), 5 μg/ml LPS, 5 μg/ml PHA, 500 U/ml IL-10 (˜17 ng/ml; R & D Systems, Minneapolis, Minn.) or combination of IL-10 and MDA-7. Supernatants were harvested at 48 hours and analyzed for cytokine content by ELISA (Endogen, Corp) according to manufacturer's instructions. Data from one representative donor are reported. * Indicates values above standard curve.\nFIG. 25. […] Human PBMC were treated with 5 μg/ml LPS, 500 U/ml IL-10, 5 ng/ml MDA-7 or combinations for 48 hours. An equal volume of an S column fraction not containing MDA-7 as determined by Western (an MDA-7 Neg Fraction) was used as a control for buffer/salt content. Supernatants were harvested at 48 hours and analyzed for cytokine content by ELISA (Endogen, Corp) according to manufacturer's instructions. Data from one representative donor are reported. * Indicates value greater than 500 pg/ml IL-1β. ** Actual values are 539 pg/ml IL-12 and 893 pg/ml GM-CSF. Data from one representative donor are reported.\nActivation of PBMC: PBMC were isolated from the peripheral blood of normal healthy donors by centrifugation over Histopaque (Sigma, St. Louis, Mo.). Cells were cultured at a concentration of 1×10^6 cells/ml in RPMI-1640 based media supplemented with L-glutamine, Hepes, penicillin, streptomycin, and 10% human AB serum (Pelfreez, Brown Deer, Wis.) for 72 hr in the presence of PHA-P at 5 μg/ml or LPS 10 μg/ml (both from Sigma, St. Louis, Mo.). Four hours prior to harvest Brefeldin A (BFA, Sigma-Aldrich) was added at a final concentration of 10 μg/ml. The supernatants as well as cells were then harvested.\nELISA assays. The ELISA reaction to detect human MDA-7 was carried out in 96-well plates using standard techniques and an antibody pair selected for sentivity. Elisa assays for cytokines were perfomed in an identical manner, employing commercially available kits as designated in the figure legends."}, "[6]": {"tested_on": "PBMC", "test": "PBMC proliferation (thymidine uptake)", "format": "cell-based, human", "settings": "4 days of coculture; three donors", "description": "Some cytokines can also function as growth factors. Therefore the proliferative simulation function of MDA-7 was addressed using PBMC. IL-10 was included as a negative cytokine control."}, "[7]": {"tested_on": "H1299 cells", "test": "Soluble MDA-7 supernatant killing, trypan blue exclusion", "format": "cell-based, human", "settings": "supernatants, 48 hours", "method": "FIG. 11A. Soluble MDA-7 (sMDA7) kills tumor cells. […] All the supernatants used in this experiment were filtered through a 0.1 micron filter prior to challenge with H1299 cells. FIG. 11B. H1299 cells were challenged with soluble MDA-7 supernatant from four different stocks and percentage dead cells evaluated after 48 hours: 1) 293*NF: Non-filtered supernatant obtained from modified 293 cells (cells were grown in serum-free conditions); 2) 293*F: 0.1 micron filtered supernatant obtained from modified 293 cells; 3) 293F: 0.1 micron filtered supernatant obtained from regular 293 cells (FBS+); and 4) H1299F: 0.1 micron filtered supernatant obtained from H1299 cells. D0 is non-diluted material whereas D1:1; D1:5, D1:10 indicate the dilutions used.\nThe secreted form of MDA-7 (sMDA-7) was produced using various cell lines and evaluated for anti-tumor activity. Soluble MDA-7 was analyzed for its anti-proliferative effects on H1299 cells. Briefly, H1299 cells were plated at cell density of 10^3 cells/chamber in Nunc chamber slides. 24 hours later, the cells were challenged with supernatants obtained from H1299 cells transduced with either Ad-mda-7 or Ad-luc (at 1000 vp/cell infection). Ad-mda7 and Ad-luc viruses were also used as additional controls. […]"}, "[8]": {"tested_on": "HUVEC cells", "test": "Tube formation with purified MDA-7 protein", "format": "cell-based, human", "method": "HUVEC cells were administered increasing amounts of MDA-7 protein purified from 293-mda7 cells. Doses that were evaluated ranged from 0.5-100 ng/ml. The ED50 of MDA-7 ranged from 5-50 ng/ml. Endothelial differentiation in the cells was inhibited by MDA-7 protein, but not control cells, based on tube formation.\nHUVEC cells were given varying doses of MDA-7 protein purified from 293-mda7 cells (lots 1-6) or from baculovirus exoressing mda-7. A positive control of Ad-mda7 and a negative control of Ad-luc were included in most assays."}, "[9]": {"settings": "500 U/ml IL-10, 5 ng/ml MDA-7, 48 hours"}, "[10]": {"settings": "500 U/ml IL-10 added to PBMC stimulated by MDA-7"}}, "data": [{"molecule": "C[C@H]1CCC/C=C/[C@@H]2C[C@H](O)C[C@H]2[C@H](O)/C=C/C(=O)O1", "note": "[Brefeldin A]", "values": [{"measurement": "secretion of soluble MDA-7 protein", "setting": "[1]", "result": "effectively inhibit the secretion of soluble MDA-7 protein"}]}, {"molecule": "Cc1ccc(C(=O)Nc2ccc(S(=O)(=O)O)c3cc(S(=O)(=O)O)cc(S(=O)(=O)O)c23)cc1NC(=O)c1cccc(NC(=O)Nc2cccc(C(=O)Nc3cc(C(=O)Nc4ccc(S(=O)(=O)O)c5cc(S(=O)(=O)O)cc(S(=O)(=O)O)c45)ccc3C)c2)c1", "note": "[Suramin]", "values": [{"measurement": "endothelial tube formation", "setting": "[2]", "result": "known inhibitor of tube formation"}]}, {"molecule": "CC/C(=C(\\c1ccccc1)c1ccc(OCCN(C)C)cc1)c1ccccc1", "note": "[tamoxifen]", "values": [{"measurement": "DNA replication (tritiated thymidine assay)", "setting": "[3]", "result": "little effect"}, {"measurement": "DNA replication (tritiated thymidine assay)", "setting": "[4]", "result": "minimal effect"}]}, {"molecule": "Tunicamycin", "values": [{"measurement": "secretion of soluble MDA-7 protein", "setting": "[1]", "result": "effectively inhibit the secretion of soluble MDA-7 protein"}]}, {"molecule": "IL-10: Human recombinant IL-10 purchased from R&D Systems (protein, UniProt P22301 19-178, looked up) Interleukin-10: SPGQGTQSENSCTHFPGNLPNMLRDLRDAFSRVKTFFQMKDQLDNLLLKESLLEDFKGYLGCQALSEMIQFYLEEVMPQAENQDPDIKAHVNSLGENLKTLRLRLRRCHRFLPCENKSKAVEQVKNAFNKLQEKGIYKAMSEFDIFINYIEAYMTMKIRN", "values": [{"measurement": "effect of IL-10 on GM-CSF production", "setting": "[5]; [9]", "result": "partially inhibited"}, {"measurement": "effect of IL-10 on IL-1β production", "setting": "[5]; [9]", "result": "partially inhibited"}, {"measurement": "effect of IL-10 on IL-12 production", "setting": "[5]; [9]", "result": "completely inhibited"}, {"measurement": "effect of IL-10 on IFNγ induction by MDA-7", "setting": "[5]; [10]", "result": "completely abrogated"}, {"measurement": "effect of IL-10 on IL-6 induction by MDA-7", "setting": "[5]; [10]", "result": "partially blocked"}, {"measurement": "effect of IL-10 on TNFα induction by MDA-7", "setting": "[5]; [10]", "result": "completely abrogated"}, {"measurement": "proliferation (thymidine uptake)", "setting": "[6]", "result": "did not induce increased thymidine uptake"}]}, {"molecule": "soluble MDA-7: secreted form of MDA-7 in filtered supernatants of cells transduced with Ad-mda7 (protein, UniProt Q13007 52-206, looked up) Interleukin-24: QEFHFGPCQVKGVVPQKLWEAFWAVKDTMQAQDNITSARLLQQEVLQNVSDAESCYLVHTLLEFYLKTVFKNYHNRTVEVRTLKSFSTLANNFVLIVSQLQPSQENEMFSIRDSAHRRFLLFRRAFKQLDVEAALTKALGEVDILLTWMQKFYKL", "values": [{"measurement": "killing of H1299 cells", "setting": "[7]", "result": "concentration-dependent bystander killing effect"}, {"measurement": "killing of H1299 cells", "setting": "[7]; listed as soluble MDA-7 protein", "result": "showed H1299 killing"}]}, {"molecule": "MDA-7: human MDA-7 protein secreted by and purified from stably transfected 293 cells (293-mda7) (protein) QEFHFGPCQVKGVVPQKLWEAFWAVKDTMQAQDNITSARLLQQEVLQNVSDAESCYLVHTLLEFYLKTVFKNYHNRTVEVRTLKSFSTLANNFVLIVSQLQPSQENEMFSIRDSAHRRFLLFRRAFKQLDVEAALTKALGEVDILLTWMQKFYKL", "values": [{"measurement": "lowest doses inhibiting tube formation", "setting": "[8]; MDA-7 protein from 293-mda7 cells (lots 1-6) or baculovirus", "result": "0.5 to 10", "unit": "ng/mL"}, {"measurement": "ED50 (inhibition of endothelial differentiation, tube formation)", "setting": "[8]; MDA-7 protein purified from 293-mda7 cells, doses 0.5-100 ng/ml", "result": "5 to 50", "unit": "ng/mL"}, {"measurement": "IL-6 secretion", "setting": "[5]; 2 ng/ml of MDA-7, above the standard curve of the ELISA kit", "result": "greater than 800 pg/ml"}, {"measurement": "IL-1β, IL-12 and GM-CSF secretion", "setting": "[5]; 5 ng/ml MDA-7, 48 hours", "result": "induces IL-1β, IL-12 and GM-CSF secretion"}, {"measurement": "MDA-7 concentration stimulating maximal IL-6 secretion", "setting": "[5]; 48 hours, ELISA", "result": 200, "unit": "pg/mL"}, {"measurement": "dose required to achieve optimal levels of TNFα and IFNγ secretion", "setting": "[5]; 48 hours, ELISA", "result": 2, "unit": "ng/mL"}, {"measurement": "induction of TNFα compared with LPS", "setting": "[5]; LPS 5 μg/ml positive control", "result": "more potent inducer than the positive stimulation control LPS"}, {"measurement": "proliferation (thymidine uptake)", "setting": "[6]", "result": "did not induce significant proliferation"}]}, {"molecule": "recombinant MDA-7 expressed in E. coli and S. cerevisiae: recombinant MDA-7 expressed in E. coli and S. cerevisiae, used in preliminary experiments (protein, UniProt Q13007 52-206, looked up) Interleukin-24: QEFHFGPCQVKGVVPQKLWEAFWAVKDTMQAQDNITSARLLQQEVLQNVSDAESCYLVHTLLEFYLKTVFKNYHNRTVEVRTLKSFSTLANNFVLIVSQLQPSQENEMFSIRDSAHRRFLLFRRAFKQLDVEAALTKALGEVDILLTWMQKFYKL", "values": [{"measurement": "secondary cytokine production, preliminary experiments", "setting": "[5]; very high doses (μg/ml quantities) required", "result": "robust production of IL-6, TNFα, and IFNγ, very low levels of GM-CSF and IL-10, and no IL-2, IL-4, and IL-5"}, {"measurement": "proliferation (thymidine uptake)", "setting": "[6]", "result": "did not show a proliferative response"}]}]}
